# Assays:
# recombinant ILT2 (human) [1] = molecular target: T1, recombinant ILT2 (human) (human, UniProt Q8NHL6 24-461); assay: SPR (Biacore T200); KD relative to Control (chimeric 15G8)
# T1 construct: also called recombinant ILT2 peptide; ILT2 protein
# Procedure: (§1) During grafting of the 15G8 CDRs, five heavy chains and four kappa light chains were generated. These chains were designated VH1-5 and Vk1-4. By combining each heavy chain with each light chain twenty different resultant antibodies are possible. All twenty possible antibodies were transiently expressed in HEK EBNA cells, and the supernatants were tested for binding to recombinant ILT2 peptide using a Biacore T200. The chimeric 15G8 antibody was used as control.
# recombinant ILT2 (human) [2] = molecular target: T1, recombinant ILT2 (human); assay: SPR (Biacore T200), HEK EBNA supernatants on recombinant ILT2 peptide
# Procedure: as §1
# T1 sequence (Q8NHL6 24-461 limits assumed): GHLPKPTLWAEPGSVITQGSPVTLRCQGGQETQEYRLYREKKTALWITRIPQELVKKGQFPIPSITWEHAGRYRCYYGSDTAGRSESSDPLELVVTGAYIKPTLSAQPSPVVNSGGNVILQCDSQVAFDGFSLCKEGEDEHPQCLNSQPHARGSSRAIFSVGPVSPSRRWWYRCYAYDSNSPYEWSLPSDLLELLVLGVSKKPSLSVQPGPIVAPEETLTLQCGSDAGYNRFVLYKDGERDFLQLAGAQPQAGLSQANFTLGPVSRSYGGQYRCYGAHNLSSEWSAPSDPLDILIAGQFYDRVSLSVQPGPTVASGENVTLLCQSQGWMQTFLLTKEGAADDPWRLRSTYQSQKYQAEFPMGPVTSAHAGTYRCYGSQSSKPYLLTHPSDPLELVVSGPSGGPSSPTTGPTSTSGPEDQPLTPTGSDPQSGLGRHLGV
Binder,Relative KD (recombinant ILT2 (human) [1]),Kd (recombinant ILT2 (human) [2]),koff (recombinant ILT2 (human) [2]),kon (recombinant ILT2 (human) [2])
"15G8-23 (humanized 15G8, VH2/Vk3) (antibody, human IgG4 S228P, kappa, V domains shown, Humanized IgG4 (S228P, L235E), kappa) VH: DVQLQGSGPGLVKPSETLSLTCSVTGYSITSGYYWNWIRQFPGKKLEWMGYISYDGSNNYNPSLKNRITISRDTSKNQFSLKLSSVTAADTATYYCAHGYSYYYAMDAWGQGTTVTVSS VL: DIQMTQSPSSLSASVGDRVTITCRTSQDISNYLNWYQQKPGKAVKLLISYTSRLHSGVPSRFSGSGSGTDYTLTISSLQPEDFATYYCQQGNTLPTFGQGTKLEIKR",0.66,0.00831 µM,0.0076 s⁻¹,915000 M⁻¹ s⁻¹
"humanized 15G8 VH4/Vk2 (antibody, IgG4, V domains shown, Humanized IgG4 (S228P, L235E), kappa; tested as supernatant of transiently transfected HEK EBNA cells) VH: QVQLQGSGPGLVKPSETLSLTCSVTGYSITSGYYWNWIRQPPGKGLEWMGYISYDGSNNYNPSLKNRVTISRDTSKNQFSLKLSSVTAADTATYYCAHGYSYYYAMDAWGQGTTVTVSS VL: DIQMTQSPSSLSASVGDRVTITCRTSQDISNYLNWYQQKPGKAVKLLISYTSRLHSGVPSRFSGSGSGTDYTLTISSLQPEDFATYFCQQGNTLPTFGQGTKLEIK",0.79,0.00993 µM,0.00685 s⁻¹,690000 M⁻¹ s⁻¹
"15G8-54 (humanized 15G8, VH5/Vk4) (antibody, IgG4, V domains shown, Humanized IgG4 (S228P, L235E), kappa) VH: QVQLQGSGPGLVKPSETLSLTCTVTGYSITSGYYWNWIRQPPGKGLEWIGYISYDGSNNYNPSLKNRVTISRDTSKNQFSLKLSSVTAADTATYYCAHGYSYYYAMDAWGQGTTVTVSS VL: DIQMTQSPSSLSASVGDRVTITCRTSQDISNYLNWYQQKPGKAPKLLISYTSRLHSGVPSRFSGSGSGTDYTLTISSLQPEDFATYFCQQGNTLPTFGQGTKLEIK",0.82,0.0103 µM,0.0117 s⁻¹,1.14e+06 M⁻¹ s⁻¹
"15G8-32 (humanized 15G8, VH3/Vk2) (antibody, human IgG4 S228P, kappa, V domains shown, Humanized IgG4 (S228P, L235E), kappa) VH: DVQLQGSGPGLVKPSETLSLTCSVTGYSITSGYYWNWIRQPPGKGLEWMGYISYDGSNNYNPSLKNRITISRDTSKNQFSLKLSSVTAADTATYYCAHGYSYYYAMDAWGQGTTVTVSS VL: DIQMTQSPSSLSASVGDRVTITCRTSQDISNYLNWYQQKPGKAVKLLISYTSRLHSGVPSRFSGSGSGTDYTLTISSLQPEDFATYFCQQGNTLPTFGQGTKLEIKR",0.65,0.00819 µM,0.00664 s⁻¹,811000 M⁻¹ s⁻¹
"15G8-53 (humanized 15G8, VH5/Vk3) (antibody, human IgG4 S228P, kappa, V domains shown, Humanized IgG4 (S228P, L235E), kappa) VH: QVQLQGSGPGLVKPSETLSLTCTVTGYSITSGYYWNWIRQPPGKGLEWIGYISYDGSNNYNPSLKNRVTISRDTSKNQFSLKLSSVTAADTATYYCAHGYSYYYAMDAWGQGTTVTVSS VL: DIQMTQSPSSLSASVGDRVTITCRTSQDISNYLNWYQQKPGKAVKLLISYTSRLHSGVPSRFSGSGSGTDYTLTISSLQPEDFATYYCQQGNTLPTFGQGTKLEIKR",0.84,0.0106 µM,0.0072 s⁻¹,682000 M⁻¹ s⁻¹
"15G8-34 (humanized 15G8, VH3/Vk4) (antibody, IgG4, V domains shown, Humanized IgG4 (S228P, L235E), kappa) VH: DVQLQGSGPGLVKPSETLSLTCSVTGYSITSGYYWNWIRQPPGKGLEWMGYISYDGSNNYNPSLKNRITISRDTSKNQFSLKLSSVTAADTATYYCAHGYSYYYAMDAWGQGTTVTVSS VL: DIQMTQSPSSLSASVGDRVTITCRTSQDISNYLNWYQQKPGKAPKLLISYTSRLHSGVPSRFSGSGSGTDYTLTISSLQPEDFATYFCQQGNTLPTFGQGTKLEIK",1,0.0126 µM,0.00832 s⁻¹,661000 M⁻¹ s⁻¹
"15G8-44 (humanized 15G8, VH4/Vk4) (antibody, IgG4, V domains shown, Humanized IgG4 (S228P, L235E), kappa) VH: QVQLQGSGPGLVKPSETLSLTCSVTGYSITSGYYWNWIRQPPGKGLEWMGYISYDGSNNYNPSLKNRVTISRDTSKNQFSLKLSSVTAADTATYYCAHGYSYYYAMDAWGQGTTVTVSS VL: DIQMTQSPSSLSASVGDRVTITCRTSQDISNYLNWYQQKPGKAPKLLISYTSRLHSGVPSRFSGSGSGTDYTLTISSLQPEDFATYFCQQGNTLPTFGQGTKLEIK",1.07,0.0135 µM,0.00977 s⁻¹,724000 M⁻¹ s⁻¹
